Our source for the Hydrophobicity values is patent US6506732B1, “Enzymatic hydrolysate of milk proteins” (Universite Laval, priority 1999, dated 2003).

A short description of this series: Hydrophobicity of peptides of subfraction SF4. The series is classed as physicochemical. The conditions noted are these: single peptides of subfraction SF4. As to the method:
Further separation of the third fraction (F3) on preparative High Pressure Liquid Chromatography (HPLC) using TSK G2000 SW column and a 5 mM ammonium acetate buffer mobile phase adjusted to pH 6.5 gives five subfractions (SF1 to SF5). Composition of subfraction four (SF4), obtained by RP-HPLC using C-18™ column, containing fifteen peptides having average molecular weight of 900 daltons (200 to 1400 daltons) and average hydrophobicity of 11.7 Kcal/mole (5 to 20 Kcal/mole) is presented in Table 2.
“LQSW (Peptide from enzymatic hydrolysate of milk proteins) [Casein β 140-143, peptide of SF4]” registered a Hydrophobicity of 5.3 kcal/mol. “YL: Casein α-s1 91-92, peptide of SF4 (UniProt P02662 106-107, looked up, fragment)” yielded a Hydrophobicity of 5.3 kcal/mol. Substance “LYQEPVL (Peptide from enzymatic hydrolysate of milk proteins) [Casein β 192-198, peptide of SF4]” gave a Hydrophobicity of 9.3 kcal/mol. In turn, “LLY (UniProt P02666 206-208, looked up, fragment) [Casein β 191-193, peptide of SF4]” displayed a Hydrophobicity of 7.7 kcal/mol.

“LYQGPIVL (Peptide from enzymatic hydrolysate of milk proteins) [Casein α-s2 99-106, peptide of SF4]” had a Hydrophobicity of 17.7 kcal/mol. “SPAQILQWQVL (Peptide from enzymatic hydrolysate of milk proteins) [Casein κ 69-79, peptide of SF4]”: the Hydrophobicity is 15.5 kcal/mol.

“INNQFLPYPY (Peptide from enzymatic hydrolysate of milk proteins) [Casein κ 51-60, peptide of SF4]” gave a Hydrophobicity of 19.9 kcal/mol. As to “VLVL (Peptide from enzymatic hydrolysate of milk proteins) [β-Lactoglobulin 92-95, peptide of SF4]”, the Hydrophobicity came out at 8.2 kcal/mol. The substance “ALPQYL (Peptide from enzymatic hydrolysate of milk proteins) [Casein α-s2 175-180, peptide of SF4]” had a Hydrophobicity of 10.9 kcal/mol. Regarding “VLPVPQK (Peptide from enzymatic hydrolysate of milk proteins) [Casein β 170-176, peptide of SF4]”, the Hydrophobicity was 12.3 kcal/mol.

“YVPLGTQY (Peptide from enzymatic hydrolysate of milk proteins) [Casein α-s1 166-173, peptide of SF4]” yielded a Hydrophobicity of 12.7 kcal/mol.

In turn, “VPLGTQY (Peptide from enzymatic hydrolysate of milk proteins) [Casein α-s1 167-173, peptide of SF4]” registered a Hydrophobicity of 9.9 kcal/mol. Regarding “QGPIVLNPW (Peptide from enzymatic hydrolysate of milk proteins) [Casein α-s2 101-109, peptide of SF4]”, the Hydrophobicity came to 15.1 kcal/mol. The substance “YGLNYYQQKPVA (Peptide from enzymatic hydrolysate of milk proteins) [Casein κ 38-49, peptide of SF4]” came in with a Hydrophobicity of 14.4 kcal/mol.

“IPIQY (Peptide from enzymatic hydrolysate of milk proteins) [Casein κ 26-30, peptide of SF4]” showed a Hydrophobicity of 11.3 kcal/mol.
